Assay results as given in article PMC9482650, “Quantitative fragmentomics allow affinity mapping of interactomes” (Nature Communications, 2022).

Legend:
Assay in all cases: holdup assay
Design in all cases: key: below the threshold = too weak to quantify, mostly under pKd 3.1 to 4
LNX2_3, Q8N448 = molecular target: T1, LNX2_3, Q8N448
T1 sequence (Q8N448 463-564, limits assumed, looked up): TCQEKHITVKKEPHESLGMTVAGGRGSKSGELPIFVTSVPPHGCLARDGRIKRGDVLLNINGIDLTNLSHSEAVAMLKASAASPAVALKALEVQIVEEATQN

CARD11, Q9BXL7 = molecular target: T2, CARD11, Q9BXL7
T2 sequence (Q9BXL7 662-765, limits assumed, looked up): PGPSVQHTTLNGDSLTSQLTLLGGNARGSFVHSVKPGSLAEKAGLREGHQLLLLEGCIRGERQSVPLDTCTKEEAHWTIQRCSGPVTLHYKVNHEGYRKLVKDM

CASK, O14936 = molecular target: CASK, O14936
DFNB31_1, Q9P202 = molecular target: T3, DFNB31_1, Q9P202
T3 sequence (Q9P202 135-233, limits assumed, looked up): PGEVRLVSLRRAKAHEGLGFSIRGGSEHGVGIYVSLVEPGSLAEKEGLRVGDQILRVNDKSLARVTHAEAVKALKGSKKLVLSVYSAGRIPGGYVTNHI

MAGI2_5, Q86UL8 = molecular target: MAGI2_5, Q86UL8
GRIP1_7, Q9Y3R0 = molecular target: T4, GRIP1_7, Q9Y3R0
T4 sequence (Q9Y3R0 999-1096, limits assumed, looked up): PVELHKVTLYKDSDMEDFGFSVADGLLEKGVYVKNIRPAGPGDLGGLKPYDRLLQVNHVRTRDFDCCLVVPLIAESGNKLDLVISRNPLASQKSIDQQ

PTPN3, P26045 = molecular target: PTPN3, P26045
TIAM2, Q8IVF5 = molecular target: T5, TIAM2, Q8IVF5
T5 sequence (Q8IVF5 885-986, limits assumed, looked up): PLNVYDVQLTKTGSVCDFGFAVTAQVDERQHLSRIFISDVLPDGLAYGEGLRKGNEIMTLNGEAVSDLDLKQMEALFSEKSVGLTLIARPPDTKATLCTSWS

DLG1_2, Q12959 = molecular target: DLG1_2, Q12959
DVL3, Q92997 = molecular target: T6, DVL3, Q92997
T6 sequence (Q92997 244-331, limits assumed, looked up): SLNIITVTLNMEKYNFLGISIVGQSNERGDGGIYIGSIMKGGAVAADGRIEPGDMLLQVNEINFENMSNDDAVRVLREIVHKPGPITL

MAGI2_3, Q86UL8 = molecular target: MAGI2_3, Q86UL8
NHERF2_2, Q15599 = molecular target: NHERF2_2, Q15599
GRIP1_3, Q9Y3R0 = molecular target: T7, GRIP1_3, Q9Y3R0
T7 sequence (Q9Y3R0 247-346, limits assumed, looked up): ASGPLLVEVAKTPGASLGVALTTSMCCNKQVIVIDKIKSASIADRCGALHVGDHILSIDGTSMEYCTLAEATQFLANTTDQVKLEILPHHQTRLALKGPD

MAGI1_2, Q96QZ7 = molecular target: MAGI1_2, Q96QZ7
DLG3_3, Q92796 = molecular target: T8, DLG3_3, Q92796
T8 sequence (Q92796 374-475, limits assumed, looked up): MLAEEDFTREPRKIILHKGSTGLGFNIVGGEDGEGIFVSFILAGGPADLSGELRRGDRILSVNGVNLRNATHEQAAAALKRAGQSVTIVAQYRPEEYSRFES

GRID2IP_2, A4D2P6 = molecular target: GRID2IP_2, A4D2P6
DLG1_1, Q12959 = molecular target: DLG1_1, Q12959
FRMPD3, Q5JV73 = molecular target: FRMPD3, Q5JV73
TJP2_1, Q9UDY2 = molecular target: TJP2_1, Q9UDY2
Inadl_6, Q8NI35 = molecular target: Inadl_6, Q8NI35
DLG4_3, P78352 = molecular target: DLG4_3, P78352
PCLO, Q9Y6V0 = molecular target: T9, PCLO, Q9Y6V0
T9 sequence (Q9Y6V0 4491-4600, limits assumed, looked up): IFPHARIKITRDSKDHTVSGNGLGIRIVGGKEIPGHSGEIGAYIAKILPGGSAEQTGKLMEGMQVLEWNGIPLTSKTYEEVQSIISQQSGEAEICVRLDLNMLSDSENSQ

RHPN1, Q8TCX5 = molecular target: T10, RHPN1, Q8TCX5
T10 sequence (Q8TCX5 508-602, limits assumed, looked up): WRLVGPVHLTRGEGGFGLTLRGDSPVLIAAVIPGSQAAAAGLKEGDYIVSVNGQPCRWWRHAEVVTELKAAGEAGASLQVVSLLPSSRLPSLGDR

SCRIB_3, Q14160 = molecular target: SCRIB_3, Q14160
MAST1, Q9Y2H9 = molecular target: MAST1, Q9Y2H9
Inadl_10, Q8NI35 = molecular target: Inadl_10, Q8NI35
DFNB31_3, Q9P202 = molecular target: T11, DFNB31_3, Q9P202
T11 sequence (Q9P202 811-907, limits assumed, looked up): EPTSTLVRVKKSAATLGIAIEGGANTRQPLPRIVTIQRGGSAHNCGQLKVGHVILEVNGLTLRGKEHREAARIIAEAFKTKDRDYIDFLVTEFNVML

[1] = plain residues with an end cap or a label only (N-terminal biotin on a linker: ttds)
[2] = plain residues with an end cap or a label only (N-terminal biotin on a linker: ahx)

Sequence of Inadl_10, Q8NI35 (Q8NI35 1673-1763): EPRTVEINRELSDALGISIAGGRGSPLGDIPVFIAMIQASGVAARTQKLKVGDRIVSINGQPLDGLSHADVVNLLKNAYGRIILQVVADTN
Sequence of SCRIB_3, Q14160 (Q14160 999-1103): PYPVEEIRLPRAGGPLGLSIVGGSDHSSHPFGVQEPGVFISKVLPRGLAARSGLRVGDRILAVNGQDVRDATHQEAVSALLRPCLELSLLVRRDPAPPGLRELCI
Sequence of MAGI2_5, Q86UL8 (Q86UL8 915-1017): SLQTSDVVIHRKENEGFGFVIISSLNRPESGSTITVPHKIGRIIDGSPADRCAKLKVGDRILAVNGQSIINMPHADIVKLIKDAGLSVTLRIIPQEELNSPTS
Sequence of MAST1, Q9Y2H9 (Q9Y2H9 962-1065): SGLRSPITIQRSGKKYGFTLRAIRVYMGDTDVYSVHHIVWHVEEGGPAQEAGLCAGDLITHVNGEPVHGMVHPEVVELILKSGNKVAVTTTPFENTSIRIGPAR
Sequence of MAGI1_2, Q96QZ7 (Q96QZ7 456-580): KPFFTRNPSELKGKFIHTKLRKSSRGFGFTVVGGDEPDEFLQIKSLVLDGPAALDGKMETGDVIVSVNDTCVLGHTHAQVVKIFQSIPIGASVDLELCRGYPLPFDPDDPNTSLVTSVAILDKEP
Sequence of NHERF2_2, Q15599 (Q15599 142-238): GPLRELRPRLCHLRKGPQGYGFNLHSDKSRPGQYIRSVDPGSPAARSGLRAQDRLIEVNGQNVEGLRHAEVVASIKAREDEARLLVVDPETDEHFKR
Sequence of Inadl_6, Q8NI35 (Q8NI35 1058-1167): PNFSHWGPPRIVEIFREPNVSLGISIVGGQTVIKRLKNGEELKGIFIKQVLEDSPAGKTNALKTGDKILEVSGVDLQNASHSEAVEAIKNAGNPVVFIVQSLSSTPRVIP
Sequence of MAGI2_3, Q86UL8 (Q86UL8 600-682): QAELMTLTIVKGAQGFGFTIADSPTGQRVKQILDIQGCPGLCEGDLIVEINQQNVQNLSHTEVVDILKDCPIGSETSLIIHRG
Sequence of PTPN3, P26045 (P26045 505-587): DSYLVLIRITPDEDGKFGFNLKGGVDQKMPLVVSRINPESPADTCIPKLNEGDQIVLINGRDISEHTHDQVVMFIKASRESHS
Sequence of FRMPD3, Q5JV73 (Q5JV73 12-100): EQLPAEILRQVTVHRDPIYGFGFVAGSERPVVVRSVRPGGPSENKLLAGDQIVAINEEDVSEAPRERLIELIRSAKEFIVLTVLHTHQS
Sequence of CASK, O14936 (O14936 487-570): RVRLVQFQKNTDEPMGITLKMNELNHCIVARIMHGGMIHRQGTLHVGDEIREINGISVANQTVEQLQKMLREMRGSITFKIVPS
Sequence of GRID2IP_2, A4D2P6 (A4D2P6 272-370): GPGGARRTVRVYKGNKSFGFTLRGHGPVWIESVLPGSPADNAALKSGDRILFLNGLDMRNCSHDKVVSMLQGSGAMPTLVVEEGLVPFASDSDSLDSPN
Sequence of DLG4_3, P78352 (P78352 306-403): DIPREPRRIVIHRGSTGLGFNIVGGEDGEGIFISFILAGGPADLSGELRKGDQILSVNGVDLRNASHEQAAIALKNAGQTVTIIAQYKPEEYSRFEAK
Sequence of TJP2_1, Q9UDY2 (Q9UDY2 24-128): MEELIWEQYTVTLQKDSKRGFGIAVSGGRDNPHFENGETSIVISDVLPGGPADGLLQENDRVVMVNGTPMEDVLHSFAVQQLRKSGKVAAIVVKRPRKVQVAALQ

In the case of PVRVCEETSL [OTULIN, Q96BN8], the pKd (LNX2_3, Q8N448; [1]) is reported as “below the threshold”, the pKd (CARD11, Q9BXL7; [1]) is reported as 3.59 and the pKd (CASK, O14936; [1]) is reported as “below the threshold”. For the same binder, the pKd (DFNB31_1, Q9P202; [1]) was 4.42, the pKd (MAGI2_5, Q86UL8; [1]) was 4.13 and the pKd (GRIP1_7, Q9Y3R0; [1]) was 3.75. For the same binder, the pKd (PTPN3, P26045; [1]) was 5.01, the pKd (TIAM2, Q8IVF5; [1]) was “below the threshold” and the pKd (DLG1_2, Q12959; [1]) was 4.56. The pKd (DVL3, Q92997; [1]) was “below the threshold”, the pKd (MAGI2_3, Q86UL8; [1]) was “below the threshold” and the pKd (NHERF2_2, Q15599; [1]) was 5.21. The pKd (GRIP1_3, Q9Y3R0; [1]) was “below the threshold”, the pKd (MAGI1_2, Q96QZ7; [1]) was 4.01 and the pKd (DLG3_3, Q92796; [1]) was 4.02. It also gave a pKd (GRID2IP_2, A4D2P6; [1]) of 4.75, a pKd (DLG1_1, Q12959; [1]) of 4.35 and a pKd (FRMPD3, Q5JV73; [1]) of 3.81. For the same binder, the pKd (TJP2_1, Q9UDY2; [1]) was “below the threshold”, the pKd (Inadl_6, Q8NI35; [1]) was 4.4 and the pKd (DLG4_3, P78352; [1]) was 3.96. For the same binder, the pKd (PCLO, Q9Y6V0; [1]) was “below the threshold”, the pKd (RHPN1, Q8TCX5; [1]) was 4.93 and the pKd (SCRIB_3, Q14160; [1]) was 5.64. For the same binder, the pKd (MAST1, Q9Y2H9; [1]) was 5.3, the pKd (Inadl_10, Q8NI35; [1]) was 3.55 and the pKd (DFNB31_3, Q9P202; [1]) was 3.49.

In the case of PSASCAVTAA [PDLIM4, P50479;P50479-2], the pKd (LNX2_3, Q8N448; [2]) is reported as “below the threshold”, the pKd (CARD11, Q9BXL7; [2]) is reported as “below the threshold” and the pKd (CASK, O14936; [2]) is reported as “below the threshold”. For the same binder, the pKd (DFNB31_1, Q9P202; [2]) was “below the threshold”, the pKd (MAGI2_5, Q86UL8; [2]) was “below the threshold” and the pKd (GRIP1_7, Q9Y3R0; [2]) was “below the threshold”. For the same binder, the pKd (PTPN3, P26045; [2]) was “below the threshold”, the pKd (TIAM2, Q8IVF5; [2]) was “below the threshold” and the pKd (DLG1_2, Q12959; [2]) was “below the threshold”. For the same binder, the pKd (DVL3, Q92997; [2]) was “below the threshold”, the pKd (MAGI2_3, Q86UL8; [2]) was “below the threshold” and the pKd (NHERF2_2, Q15599; [2]) was “below the threshold”. For the same binder, the pKd (GRIP1_3, Q9Y3R0; [2]) was “below the threshold”, the pKd (MAGI1_2, Q96QZ7; [2]) was “below the threshold” and the pKd (DLG3_3, Q92796; [2]) was “below the threshold”. The pKd (GRID2IP_2, A4D2P6; [2]) was “below the threshold”, the pKd (DLG1_1, Q12959; [2]) was “below the threshold” and the pKd (FRMPD3, Q5JV73; [2]) was “below the threshold”. For the same binder, the pKd (TJP2_1, Q9UDY2; [2]) was “below the threshold”, the pKd (Inadl_6, Q8NI35; [2]) was “below the threshold” and the pKd (DLG4_3, P78352; [2]) was “below the threshold”. The pKd (PCLO, Q9Y6V0; [2]) was “below the threshold”, the pKd (RHPN1, Q8TCX5; [2]) was “below the threshold” and the pKd (SCRIB_3, Q14160; [2]) was “below the threshold”. For the same binder, the pKd (MAST1, Q9Y2H9; [2]) was “below the threshold”, the pKd (Inadl_10, Q8NI35; [2]) was “below the threshold” and the pKd (DFNB31_3, Q9P202; [2]) was “below the threshold”.
